What all share (experiment): cleavage_in_vitro
Series [1] has as its target T1, BamHI-HF E163A/E167T (Bacillus amyloliquefaciens) (UniProt P23940).
T1 sequence: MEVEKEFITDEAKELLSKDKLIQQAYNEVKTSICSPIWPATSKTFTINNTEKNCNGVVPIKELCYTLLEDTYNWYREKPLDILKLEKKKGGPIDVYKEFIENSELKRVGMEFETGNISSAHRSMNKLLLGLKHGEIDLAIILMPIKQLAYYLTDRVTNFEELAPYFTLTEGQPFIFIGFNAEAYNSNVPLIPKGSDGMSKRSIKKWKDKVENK
To be noted: NEB4, 37 C, Mg2+; FI NEB1-3: >=4000, >=4000, >=250.

For series [2], the system named is T2, BsmBI-HF N185Y/R232A (Bacillus stearothermophilus).
T2 sequence: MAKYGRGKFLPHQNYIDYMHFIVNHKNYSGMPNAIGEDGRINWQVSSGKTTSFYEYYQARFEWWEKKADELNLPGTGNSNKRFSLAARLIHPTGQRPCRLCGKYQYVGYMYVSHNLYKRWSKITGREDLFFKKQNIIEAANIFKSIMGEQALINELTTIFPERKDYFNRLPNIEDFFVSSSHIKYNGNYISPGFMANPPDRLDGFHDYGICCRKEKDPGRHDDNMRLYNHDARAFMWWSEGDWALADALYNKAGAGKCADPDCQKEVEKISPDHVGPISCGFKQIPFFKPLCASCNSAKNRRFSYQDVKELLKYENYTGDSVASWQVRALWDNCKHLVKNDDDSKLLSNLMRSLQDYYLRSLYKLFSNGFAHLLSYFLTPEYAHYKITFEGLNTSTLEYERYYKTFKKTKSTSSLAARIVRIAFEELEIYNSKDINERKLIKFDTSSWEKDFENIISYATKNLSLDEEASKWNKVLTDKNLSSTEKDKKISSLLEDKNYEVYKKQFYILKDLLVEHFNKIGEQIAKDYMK
The note with it: NEB4, 55 C, Mg2+; listed as BsmBI; FI NEB1-3: 2, >=500, >=64.

Series [3] relates to T3, BspQI (Bacillus sphaericus).
T3 sequence: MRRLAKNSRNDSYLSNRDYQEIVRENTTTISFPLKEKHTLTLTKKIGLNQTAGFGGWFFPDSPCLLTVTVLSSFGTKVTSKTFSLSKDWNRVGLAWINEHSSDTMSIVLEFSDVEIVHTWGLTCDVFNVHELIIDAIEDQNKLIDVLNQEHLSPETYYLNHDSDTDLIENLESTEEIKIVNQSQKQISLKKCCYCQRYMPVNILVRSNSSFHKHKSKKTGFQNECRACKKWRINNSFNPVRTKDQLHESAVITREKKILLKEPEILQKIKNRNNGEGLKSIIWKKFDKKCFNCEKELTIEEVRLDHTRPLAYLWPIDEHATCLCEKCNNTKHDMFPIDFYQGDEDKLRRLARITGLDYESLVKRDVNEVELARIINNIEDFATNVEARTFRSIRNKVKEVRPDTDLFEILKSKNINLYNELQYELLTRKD
The note with it: NEB4, 50 C, Mg2+; FI NEB1-3: 2, 16, 32.

Series [4] relates to BstXI (Bacillus stearothermophilus). The note with it: NEB4, 55 C, Mg2+; FI NEB1-3: 2, 2, 2.
Series [5] concerns the target T4, PstI (Providencia stuartii 164) (UniProt P00640).
T4 sequence: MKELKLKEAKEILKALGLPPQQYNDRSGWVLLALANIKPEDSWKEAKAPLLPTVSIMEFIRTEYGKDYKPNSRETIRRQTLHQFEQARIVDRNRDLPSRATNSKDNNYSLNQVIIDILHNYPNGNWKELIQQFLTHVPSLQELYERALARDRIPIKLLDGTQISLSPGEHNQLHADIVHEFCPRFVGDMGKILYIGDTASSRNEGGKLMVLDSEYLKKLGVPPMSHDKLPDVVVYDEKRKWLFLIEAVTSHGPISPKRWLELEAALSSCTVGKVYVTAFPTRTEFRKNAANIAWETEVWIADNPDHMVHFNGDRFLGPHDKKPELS
To be noted: NEB4, 37 C, Mg2+; FI NEB1-3: 64, 32, 120.

Series [6] concerns the target T5, PstI-HF D91A (Providencia stuartii 164) (UniProt P00640).
T5 sequence: T4 sequence with D91A
To be noted: NEB4, 37 C, Mg2+; FI NEB1-3: 1000, 4000, 4000.

Series [7] concerns the target T6, ScaI-HF H193A/S201F (Streptomyces caespitosus) (UniProt O52691).
T6 sequence: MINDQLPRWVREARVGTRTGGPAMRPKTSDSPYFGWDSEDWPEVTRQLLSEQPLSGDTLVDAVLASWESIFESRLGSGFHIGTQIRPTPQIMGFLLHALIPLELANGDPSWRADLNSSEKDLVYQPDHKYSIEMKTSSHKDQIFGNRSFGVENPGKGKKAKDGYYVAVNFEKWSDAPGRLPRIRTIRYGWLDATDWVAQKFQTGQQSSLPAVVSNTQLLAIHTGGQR
To be noted: NEB4, 37 C, Mg2+; FI NEB1-3: 4000, 1000, 2000.

The test system of series [8] is T7, SphI-HF K100A (Streptomyces phaeochromogenes).
T7 sequence: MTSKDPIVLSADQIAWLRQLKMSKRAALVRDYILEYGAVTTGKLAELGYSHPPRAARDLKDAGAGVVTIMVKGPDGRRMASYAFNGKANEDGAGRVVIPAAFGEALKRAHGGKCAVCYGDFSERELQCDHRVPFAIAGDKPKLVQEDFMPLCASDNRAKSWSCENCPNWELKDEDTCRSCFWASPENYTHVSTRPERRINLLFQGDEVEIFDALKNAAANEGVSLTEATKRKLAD
The note with it: NEB4, 37 C, Mg2+; FI NEB1-3: 4000, 2000, 250.

These results are taken from patent US20130115678.

Changes are numbered by the printed parent chain.

lambda phage DNA: the activity (fidelity index) is greater than 4000 in series [1]; greater than 500 in series [2]; 4 in series [3]; 4 in series [4]; 8 in series [5]; 4000 in series [6]. For the same substance, the activity (fidelity index) was 1000 in series [7] and 8000 in series [8].
